Laboratory results as given in article PMC9278865 (Science Advances, 2022).

Target: SARS-CoV-2 RBDwt (residues 319 to 541) (SARS-CoV-2, UniProt P0DTC2 319-541)
Test: SPR

B1: ACE2_(740) LFMYQY2HA in the IgG3 backbone with a truncated hinge (M80) (Fc fusion)
chain: QSTIEEQAKTFLDKFNHEAEDLFYQSSLASWNYNTNITEENVQNMNNAGDKWSAFLKEQSTFAQYYPLQEIQNLTVKLQLQALQQNGSSVLSEDKSKRLNTILNTMSTIYSTGKVCNPDNPQECLLLEPGLNEIMANSLDYNERLWAWESWRSEVGKQLRPLYEEYVVLKNEMARANHYEDYGDYWRGDYEVNGVDGYDYSRGQLIEDVEHTFEEIKPLYEHLHAYVRAKLMNAYPSYISPIGCLPAHLLGDMWGRFWTNLYSLTVPFGQKPNIDVTDAMVDQAWDAQRIFKEAEKFFVSVGLPNMTYGFWENSMLTDPGNVQKAVCHPTAWDLGKGDFRILMCTKVTMDDFLTAHAEMGAIQYDMAYAAQPFLLRNGANEGFHEAVGEIMSLSAATPKHLKSIGLLSPDFQEDNETEINFLLKQALTIVGTLPFTYMLEKWRWMVFKGEIPKDQWMKKWWEMKREIVGVVEPVPHDETYCDPASLFHVSNDYSFIRYYTRTLYQFQFQEALCQAAKHEGPLHKCDISNSTEAGQKLFNMLRLGKSEPWTLALENVVGAKNMNVRPLLNYFEPLFTWLKDQNKNSFVGWSTDWSPYADQSIKVRISLKSALGDKAYEWNDNEMYLFRSSVAYAMRQYFLKVKNQMILFGEEDVRVANLKPRISFNFFVTAPKNVSDIIPRTEVEKAIRMSRSRINDAFRLNDNSLEFLGIQPTLGPPNQPPVS
B1: binds.
